Here are results for two molecules from article PMC6888414, “Two Homologous Enzymes of the GalU Family in Rhodococcus opacus 1CP—RoGalU1 and RoGalU2” (International Journal of Molecular Sciences, 2019).

For data set [1], the target named is UDP-glucose pyrophosphorylase RoGalU2 of Rhodococcus opacus 1CP (Rhodococcus opacus 1CP). Put plainly: SEC; Superdex 200 10/300 GL, non-denaturing, 50 mM Hepes pH 7.0, 1 mM magnesium chloride; RoGalU2 at 0.2 and 2.0 mg/mL, in duplicates; mass from a calibration with standard proteins.
Substrate in data set [2]: O=P(O)(O)O[C@H]1O[C@H](CO)[C@@H](O)[C@H](O)[C@H]1O
Put plainly: HPLC of UDP-glucose formation, initial rates. To be noted: 1.5 mM UTP, 1 mM MgCl2, 50 mM Hepes pH 7.4, 42 °C, glucose 1-phosphate 0.05–10 mM, Michaelis-Menten fit of the low range only, non-Michaelis behaviour above 10 mM. Format: biochemical, Rhodococcus opacus. From the text: (§1) HPLC of UDP-glucose formation, initial rates on RoGalU2

Substrate in data set [3]: O=c1ccn([C@@H]2O[C@H](COP(=O)(O)OP(=O)(O)OP(=O)(O)O)[C@@H](O)[C@H]2O)c(=O)[nH]1
Put plainly: HPLC of UDP-glucose formation, initial rates. Format: biochemical, Rhodococcus opacus. To be noted: 250 mM glucose 1-phosphate, 1 mM MgCl2, 50 mM Hepes pH 7.4, 42 °C, UTP 0.01–5 mM, Yano and Koga substrate inhibition fit.
Text: as §1

Molecule “UDP-glucose pyrophosphorylase RoGalU2 of Rhodococcus opacus 1CP (enzyme)” came in with a stoichiometry N in data set [1] of 6.

B1: RoGalU2 (Rhodococcus opacus) (protein)
chain: MTDAAPHTASAFRTAVVPAAGMGTRFLPATKTVPKELLPVVDTPGIELVAGEAADSGAGRLVIVTSPGKDGVVAHFVEDLVLESKLEASGKYHLLEKVRKAPGLLEVESVIQDEPLGLGHAVGCAESVLDDDEDAIAVLLPDDLVMPRGVLETMSRVRRKRGGTVLCAIDVPKDQVSAYGVFEVETVPDATNPDVLKVIGMVEKPAIEDAPSTFAAAGRYLLDRAIFDALRRIEPGAGGELQLTDAIALLIKEGHPVHVVVHRGTRHDLGNPGGYLRAAVDFALDMEEYGPSLREWLIDRLKRTDS
notes: full length, N-terminal His10 tag (pET16bP), codon-optimized gene in E. coli BL21(DE3) pLysS, HisTrap purified; 34 kDa subunit, hexamer by SEC (188 kDa)
Take B1: in data set [2], the Michaelis constant (Km) was determined as 900 µM, the kcat was 3.7 s⁻¹ and the kcat/Km was determined as 4000 M⁻¹ s⁻¹. In addition, in data set [3], the Michaelis-Menten constant (Km) is 510 µM, the kcat was determined as 96.2 s⁻¹ and the kcat/Km was found to be 190000 M⁻¹ s⁻¹.

One may read the stoichiometry N as the number of molecules, sites or subunits per partner or assembly. One may read the Km as the concentration of substrate that gives half-maximal velocity. The kcat is the maximal rate divided by the concentration of active sites. Broadly, the kcat/Km is the second-order rate constant that governs catalysis at low substrate concentration.
